According to the nanobody polyreactivity screen of Harvey et al. (2022):

Assay: yeast display, Sf9 membrane polyspecificity reagent, FACS + sequencing; frameworks hold sequencing errors
Method in brief: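 In a synthetic yeast display library (Saccharomyces cerevisiae BJ5465), nanobody expression was induced with galactose for 36–48 hours. FACS gates were set low and high (top ~1%) using anti-HA fluorescence for expression and streptavidin fluorescence for binding of the Sf9 membrane reagent. Each polyreactivity label is drawn from the gate of origin.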

With “QVQLVESGGGLVQAGGSLRLSCAASGSFGFYVMGWYRQAPGKERELVSAISSVGSTNYADSVKGRFTISRDNAKNTVYFQMNSLKPEDTAVYYCARRYWYPDAFYRYDYWGQGTQVTVSS” the “polyreactivity (PSR sort gate)” value was “low polyreactivity”.

In the case of “QVQLVESGGGLVQAGGSLRLSCAASGRIYRNAMGWYRPAPGKERELVAAISSRGASTYYADSVKGRFTITRDNAKNTVYLQMNSLKPEDTAVYYCAARTSSSSGYYAREYWGQGTQVTVSS”, the “polyreactivity (PSR sort gate)” value is reported as “high polyreactivity”.

With “QVQLVESGGGLVQAGGSLRLSCAASGSTFYIYAMGWYRQAPGKERELVAAITWRGGGTYYADSVKGRFTISRDNAKNTVYLEMNSLKPEDTAVYYCNADYPRSRGVKYDYWGQGTQVTVSS” the “polyreactivity (PSR sort gate)” value was “high polyreactivity”.

For “QVQLVESGGGLVQAGGSLRFSCAASGSTISSNVMGWYRQAPGKERELVAAITKTGGRTYYADSVKGRFTISRDNAKNTVYLQMNSLKPEDTAFYYCAAKSKPRGTSSDYYYWGQGTQVTVSS”, the “polyreactivity (PSR sort gate)” value was “high polyreactivity”.

With “QVHLVESGGGLVQAGGSLRLSCAASGSTFTYYDMVWYRKAPGNETELLATIDSTTRTYYADSVKGRFTISRDNAKNTVSLQMNSLKPEETAVYYCAADLTWAYFYYLFYRYDYWGQGTQVTVSS” the “polyreactivity (PSR sort gate)” value was “low polyreactivity”.

In the case of “QVQLVESGGGLVQAGGSLRLSCAASGSTFSYNAMGWYRQAPGKERELVAAIRTSGGRTYYADSVKGRFTISRDNAKNTVYLQMNSLKPEDTAVYYCAKRWVYRYGYEYWGQGTQVTVSS”, the “polyreactivity (PSR sort gate)” value is reported as “high polyreactivity”.

With “QVQLVESGGCLVQAGGSLRLSCAASGLIFYENAMGWYRQAPGKERELVAAINYDGDSTYYADSVKGRFTISRDNAKITVYLQMNSLKPEDTAVYYCAADGGWVLFWMDYWGQGTQVTVSS” the “polyreactivity (PSR sort gate)” value was “low polyreactivity”.

For “QDQLVESAGGLVQAGGSLRLSCAASGSNFYHYAMGWYRQAHGKERELVAAISQSGGGTYYADSVKGRFTISRDNAKNTVYLQMNSLKPEDTAVYYFAAKGRHNYYYWGQGTLVTVSS”, the “polyreactivity (PSR sort gate)” value was “high polyreactivity”.

With “QVQLVESGGGLVQAGGSLRLSCADSGRIFSWNAMGRYRQAPRKERELVAAISSSGARTYYADSVKGRFTISRDNAKNTVYLQMNSLKPEDTAVYYCIAARSSQHYYSYNYWGQGTQVTVSS” the “polyreactivity (PSR sort gate)” value was “high polyreactivity”.

With “QVQLVESGGGLVQAGGSLRLSCAASGFIFGRYAMGWYRQAPGKERELVAVITWSGGRTYYADSVKGRFTISRDNAKNTVYLQMNSLKPEDTAVYDCAADRYPYHYGYDYWGQGTQVTVSS” the “polyreactivity (PSR sort gate)” value was “high polyreactivity”.

With “QVQLVESGGGLVQAGGSLRLSCAASGRIFTNYVMGWYRQAPGKERELVAAISKSGSRTYYADSVKGRFTISRDNAKNTVYLQMNSLKPEDTAVYYCAKVDTPGSQRYITPDEGPEYEYWGQGTQVTVSS” the “polyreactivity (PSR sort gate)” value was “high polyreactivity”.

In the case of “QVQIVESGGGLVQAGGSLSLSCAASGSILDQYAMGWYRQAPGKERELVAAITAIGDSTYYADSLKGRFTISRDNAKYTVYLQMYSLKPEVTAVYYCAGTYVGSDGGDYWGQGTQVTVAS”, the “polyreactivity (PSR sort gate)” value is reported as “low polyreactivity”.

In the case of “QVQLVESGGGLVQAGGSLRLSCAASGSSFDWYVMGWYRQAPGKERELVAVISRSGGSTYYADSVKGRFTISRDNAKITVYLQMNSLTPEDTAVYSCGADSRSYYRDVDYWGQGTQVTVSS”, the “polyreactivity (PSR sort gate)” value is reported as “low polyreactivity”.

With “QVQLVESGGGLVQAGGSLRLSCAASGRISGLYAMGWSRQAPGKEWELVADSTYYADSVKGRFTISRDNAKNTVYLQMNSLKEEDTAVYYCAAVGGGTSTYSGDYWGQGTQVTVSS” the “polyreactivity (PSR sort gate)” value was “high polyreactivity”.

For “QVQLVESGGGIVQAGGSLRLSCAASGRIFPYYDMGWYRQAPGKERELVAAITSSGSTFYADSVKGRFTISRDNAKNTVYLQMNSLKPEDTAVYYCNTRDIRVRPYDYWGQGTQVTVSS”, the “polyreactivity (PSR sort gate)” value was “low polyreactivity”.

For “QVQLVESGGGLVQAGGSLRLSCADSGSIFFFYAMGWYRQAPGKERELVAAISKSPSSTYYADSVKGRFTISRDNAKNTVYLQMNSLKPEDTAVYYCNTGYSGIQYYYWGQGAQVTVSS”, the “polyreactivity (PSR sort gate)” value was “low polyreactivity”.

With “QVELQVSGGGLVRAGGSLRLSCAASGNIFDADIMGWYRQAPGKERELVASITGGGSTSYAESAKGRFTISRDNAKNAVYLQMKSLKPEDTAVYYCARDSWWYHHYDYWGQGTQVTVSS” the “polyreactivity (PSR sort gate)” value was “low polyreactivity”.

For “QVQLVESCGGFVQAGGSLSLSCAASGSIYGRYGMGWYIQAPGKERELVAAITSGTRTNYADSVKGRFTISRDNAKNTVYLQMKSLKPEDTAVYYCYALRLRGNYEYGYWGQGTQVTVSS”, the “polyreactivity (PSR sort gate)” value was “low polyreactivity”.

In the case of “QVQLVESGGGLVQAGGSLRLSCAASGFTFVNYVMGWYRQAPGKERELVAAISRSGGSTYYADSVKGRFTISRDNAKNTVYLQMNSLIPEDTAVYYCAARWFYRAGFNYWGQGTQVTVSS”, the “polyreactivity (PSR sort gate)” value is reported as “high polyreactivity”.

For “QVQLVESGGGLVQAGGSLRLSCAASGRTFTQYAMGWYRQAPGKERELVARISYSGGTTYYADSVKGRFTISRDNAKNTVYLQMNSLKPEDNAVYYCAKARVVAGYDYWGQGTQVTVSS”, the “polyreactivity (PSR sort gate)” value was “high polyreactivity”.

In the case of “QVHLVESGGGLVQAGRTLRLICAASGFIFWRNTMGWYRQAPGKERELVAVITRGGSTYYADSVKGRFTLSRDNAKNTGYLQMNSLKPEDTAVYYCAARNDYYKTFSGYDYWGQGTQVTVSS”, the “polyreactivity (PSR sort gate)” value is reported as “low polyreactivity”.

With “QVQLVESGGGLVQAGGSLRLSCAASGFTFTYYSMGWYRQAPGKERELVARINSCGNTNYADSVKGRFTISRDNAKNTVYLQMNSLKPEDTAVYSCARDACNRYDYWGQGTQVTVSS” the “polyreactivity (PSR sort gate)” value was “low polyreactivity”.

With “QVQLVESGGGLVQAGGSIRLSCAASGLIFRYYTMGWYRQAPGKERELVATITKSGSSTYYADSVKGRFTISRDNAKNTVYLQMNSLKPEDTAVYYCAARVTRRYDYWGQGTQLTVSS” the “polyreactivity (PSR sort gate)” value was “high polyreactivity”.

For “QVQLVESRGGLVQAGGSLRLSCAASGITFYTYTMGWYRQAPGKERELVAVISASGARTYYADSVKGRFTISRDNAKNTVYLQMNSLKPEDTAVYYFAARSFYISPWRFDYWGQGTQVTVSS”, the “polyreactivity (PSR sort gate)” value was “high polyreactivity”.

In the case of “QVQLVESGGGLVQAGGSLRLICAASGSTFVFYAMGWYRQAPGKERELYATISTGGSTYADSVKGRFTISRDNSKNTVYLQMNSLIPEDTAVYYCNARLRSFTLSDAEYEYWGQGTQETVSS”, the “polyreactivity (PSR sort gate)” value is reported as “low polyreactivity”.

In the case of “QVQLVESGGGLVQAGGSLRLSCAASGSIFDPYAMGWYIQAPGKERELVAVINDGGRTTYADSVKGRFTISRDNAKNTVYLQMNSLKPEDTAVYYCAADVGYFKSDYWGQGTQVTVSS”, the “polyreactivity (PSR sort gate)” value is reported as “low polyreactivity”.

For “QVQLVESGGGLVQAGGSLRLSCAASGFNFRYYAMGWYRQAPGKERELVAAISWSGGTTYYADSVKGRFTISRDNAKNTVYLQMNSLKPEDTAVYYCAARVARFSVPYDYWGQGTQVTVSS”, the “polyreactivity (PSR sort gate)” value was “low polyreactivity”.

In the case of “QVQLVESGGGLVQAGGSFRLSCAASGSIFVVYAMGWYRQAPGKERELVAAITSGGSTYYADSVKGRFTISRDNAKNTVYLQMNSLKPEDTAVYYCNAKRTGPWFLHVPVYYWGQGTQVTVSS”, the “polyreactivity (PSR sort gate)” value is reported as “low polyreactivity”.

With “QVQLVESGGGLVQAGGSLRLSCAASGRTFGANAMGWYRQAPGKERELVAAISSSDDSTYYADSVKGRFTISRDNAKNTVYLQMNSLKPEDTAVYYCAAEDVYPQLDYWGQGTQVTVSS” the “polyreactivity (PSR sort gate)” value was “low polyreactivity”.

For “QVQLVESGGGLVQAGGSLRLSCAASGRIFRYYAMGWYRQAPGKERELVATISGRGGSTYYADSVKGRFTISRDNAKNTVYREMNSLKPEDTAVYYCYTVSTRYIYDYWGQGTQVTVSS”, the “polyreactivity (PSR sort gate)” value was “high polyreactivity”.

With “RVQLVESGGGLVQAGGSLRLSCAASGSTFLVYAMGWYRQAPGKERELVAVIRWRDGSTYYADSVKGRFTISRDNAKNTVYLQLNSLKPEDTAVYYCAAVYWGEEYEYWGQGTQVTVSS” the “polyreactivity (PSR sort gate)” value was “low polyreactivity”.

With “QVQLVESGGGLVQAGGSLRLSCAASGITFLKNAMGWYRQAPGKERELVAAISSSGGSTYYADSVKGRFTISRDNAKNTVYLQMNSLKPEDTAVYYCAAYPTSTVVDDFDYWGQGTQVTVSS” the “polyreactivity (PSR sort gate)” value was “high polyreactivity”.

With “QVQLVESGGGLVQAGGSLRLSCAAYGSIFSYNAMGWYRPAPGKERELVAAITKSGGRTYYADSVKGRFTISRANAKNTVYLQMNSLKPEDTAVYYCNARSGSQYDYWGQGTQVTVSS” the “polyreactivity (PSR sort gate)” value was “high polyreactivity”.

With “QVQLVESGGGLVQAGGSLRLSCAASGSTFYPYAMGWYRQAPGNERELVAAITGTGGSTYYADSVKGRFTISRDNAKNTVYLQMNSLKPEDTAVYYCATRRRYYYSRYNYWGQGTQVTVSS” the “polyreactivity (PSR sort gate)” value was “high polyreactivity”.

In the case of “QVQLVESGGGLVQAGGSLRLSCADSGLTFEGYAMGWNRQAPGKERELVAAITWSGGNTYYADSVKGRFTSSRDNAKKTVYLQMNSLKPEDTAVYYCAAQRPSRDSRPFEYWGQGTQVTVSS”, the “polyreactivity (PSR sort gate)” value is reported as “low polyreactivity”.

For “QVQLVESGGGLVQAGGSLRLSCAASGSTFWYYGMGWYRQAPGKERELVAAITRGGSTYYADSVKGRFTISRDNAKNTVYLQMNSLKPEDTAVYYCAAGISVRWSPSYYYWGQGTQVTVSS”, the “polyreactivity (PSR sort gate)” value was “high polyreactivity”.

For “QVQLEESGGGLVQAGGSLRLTCAASGRIFHSNDMGWNRQAPGKERELVAAITKVGGTNYADSVKGRFTISRDNAKNTVSLQMNSLKPEDTAVYYCAAAFYLYSPISGVYLSYSEYDYWGQGSQVTVSS”, the “polyreactivity (PSR sort gate)” value was “high polyreactivity”.

In the case of “QVQLVESGGCLVQAGGSLRLSCAASGSTFTINVMGWYRQAPGKERELVAAINGGGRTNYADSVKGRFTISRDNAKNTVYLQMNSLKPEDTAVYYCAADGLSNVRQMDYWGQGTQVTVSS”, the “polyreactivity (PSR sort gate)” value is reported as “low polyreactivity”.

In the case of “QVQLVESGGGLVQAGGSLRLSCAASGSTFFYYAMGLYRQAPGKERELVADITSSGGRTYYADSVKGRFTISRDNAKNTVYLQMNSLKPEDTAVYYCAARDYRQSRYEYWGQGTQVTVSS”, the “polyreactivity (PSR sort gate)” value is reported as “high polyreactivity”.

In the case of “QVLLVESGGGLVQAGGSLRLICAASGLIFFYYDMGWYRQAPGKERELVAAISQRGGSTYYADSLKGRFTISRDNEKNTVYLQMNSLKPEETAVYYCNVRSPASYRRYYWGQGTQVTVSS”, the “polyreactivity (PSR sort gate)” value is reported as “high polyreactivity”.

With “QVQLVESGGGLVQAGGSLRLSCAASGYIFGSYVMGWYRQAPGKERELVAAITRIGASTYYEDSVKGRFTISRDTAKNTVYIQMNSLKPDDTAVYDCATDQGGYYENDYWGQGTQVTVSS” the “polyreactivity (PSR sort gate)” value was “low polyreactivity”.

With “QVQLVESGGGLVQARGSLRLSSAPSGRTFTVYAMGWYRHARGKERELVAAIRRTGSTYYADSVKGRFTISRDNAKNTVYLQMNSLKPEDTAVYYCYARPSTGWSIYGVDYWGQGTQGTVSS” the “polyreactivity (PSR sort gate)” value was “low polyreactivity”.

With “QVQLVESGGGLVQAGGSLRLSCAASGRIFGVYAMGWSRQAPGKERELVAAITARGGSTYYADSVKGRFTISRDNAKNTVYLQMNSLKPEDTAVYYCNAARSTSRPYDYWGQGTQVTVSS” the “polyreactivity (PSR sort gate)” value was “high polyreactivity”.
